Results taken from patent publication US20230137139A1, “BIOSYNTHESIS OF CANNABINOIDS AND C[…]” (priority 2020, published 2023).
Residue numbers refer to the chain shown, from its start.

B1: t865745 (protein)
chain: MGNTTSIAGRDCLISALGGNSALAVFPNELLWTADVHEYNLNLPVTPAAITYPETAAQIAGVIKCASDYDYKVQARSGGHSFGNYGLGGADGAVVVDMKHFTQFSMDDETYEAVIGPGTTLNDVDIELYNNGKRAMAHGVCPTIKTGGHFTIGGLGPTARQWGLALDHVEEVEVVLANSSIVRASNTQNQDVFFAVKGAAANFGIVTEFKVRTEPAPGLAVQYSYTFNLGSTAEKAQFVKDWQSFISAKNLTRQFYNNMVIFDGDIILEGLFFGSKEQYDALGLEDHFAPKNPGNILVLTDWLGMVGHALEDTILKLVGNTPTWFYAKSLGFRQDTLIPSAGIDEFFEYIANHTAGTPAWFVTLSLEGGAINDVAEDATAYAHRDVLFWVQLFMVNPVGPISDTTYEFTDGLYDVLARAVPESVGHAYLGCPDPRMEDAQQKYWRTNLPRLQELKEELDPKNTFHHPQGVMPA
modifications: expressed in S. cerevisiae strain
B2: t865730 (protein)
chain: B1 chain with I63V, N202G
B3: t865732 (protein)
chain: B1 chain with I63V, H426Y
B4: t865742 (protein)
chain: B1 chain with I63V, E112T
B5: t865721 (protein)
chain: B1 chain with I63V, Y256F
B6: t865747 (protein)
chain: B1 chain with I63V, V398A
modifications: expressed in S. cerevisiae strain
B7: t865735 (protein)
chain: B1 chain with I63V, T446P
B8: t865795 (protein)
chain: B1 chain with I63V, F262I
modifications: expressed in S. cerevisiae strain
B9: t865724 (protein)
chain: B1 chain with I63V, T102N
B10: t878466 (protein)
chain: B1 chain with I63V, Q161K
modifications: expressed in S. cerevisiae strain
B11: t865755 (protein)
chain: B1 chain with I63V, L392H
modifications: expressed in S. cerevisiae strain
B12: t865718 (protein)
chain: B1 chain with I63V, P472R
B13: t865758 (protein)
chain: B1 chain with I63V, E456A
modifications: expressed in S. cerevisiae strain
B14: t878468 (protein)
chain: B1 chain with A57E, I63V
modifications: expressed in S. cerevisiae strain

What follows are molecules tested on CBCVA, THCVA, and CBDVA production (assay: In vivo TS activity assay, Example 2 protein engineering of A. niger CBCAS, cultures fed divaric acid). Conditions: S. cerevisiae strains expressing A. niger CBCAS mutants, secondary screen, fed divaric acid.
Assay type: cell-based, S. cerevisiae
Outline: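 Quantification by LC-MS of methanol-extracted production cultures, strains in quadruplicate. Yeast carrying mutant A. niger CBCAS (MFalpha2 N-terminal and HDEL C-terminal signal peptides) were induced 4 days at 20 °C in YEP+4% galactose fed 1 mM divaric acid, re-dosed every 24 h with 2% galactose and 1 mM divaric acid, after 2 days of dextrose preculture at 30 °C; 100 mM citrate pH 5.5 was then added for 2 more days.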

Row | Molecule | Mean CBCVA | Mean CBDVA | Mean THCVA
1 | B1 | 7068.26 µg/L | 0.00 µg/L | 2991.05 µg/L
2 | B2 | 3406.05 µg/L | 0.00 µg/L | 1922.88 µg/L
3 | B3 | 4734.85 µg/L | 0.00 µg/L | 2408.74 µg/L
4 | B4 | 2864.87 µg/L | 0.00 µg/L | 1514.38 µg/L
5 | B5 | 3281.34 µg/L | 0.00 µg/L | 1482.54 µg/L
6 | B6 | 5571.51 µg/L | 0.00 µg/L | 2154.32 µg/L
7 | B7 | 2900.35 µg/L | 0.00 µg/L | 1459.81 µg/L
8 | B8 | 1897.16 µg/L | 0.00 µg/L | 1181.24 µg/L
9 | B9 | 2190.11 µg/L | 0.00 µg/L | 1153.25 µg/L
10 | B10 | 2985.03 µg/L | 0.00 µg/L | 1623.40 µg/L
11 | B11 | 3729.91 µg/L | 0.00 µg/L | 1768.56 µg/L
12 | B12 | 5888.44 µg/L | 0.00 µg/L | 2516.89 µg/L
13 | B13 | 3465.87 µg/L | 0.00 µg/L | 1548.62 µg/L
14 | B14 | 2954.90 µg/L | 0.00 µg/L | 1628.92 µg/L

Same assay, conditions: secondary screen

Row | Molecule | average CBCVA titer compared with the A. niger positive control
15 | B1 | higher
16 | B3 | higher
17 | B6 | higher
18 | B11 | higher
19 | B12 | higher

Same assay, conditions: share of terminal cannabinoid product profile, fed divaric acid

Row | Molecule | % CBCVA | % CBDVA | % THCVA
20 | B1 | 70.27% | 0.00% | 29.73%
21 | B2 | 63.92% | 0.00% | 36.08%
22 | B3 | 66.28% | 0.00% | 33.72%
23 | B4 | 65.42% | 0.00% | 34.58%
24 | B5 | 68.88% | 0.00% | 31.12%
25 | B6 | 72.12% | 0.00% | 27.88%
26 | B7 | 66.52% | 0.00% | 33.48%
27 | B8 | 61.63% | 0.00% | 38.37%
28 | B9 | 65.51% | 0.00% | 34.49%
29 | B10 | 64.77% | 0.00% | 35.23%
30 | B11 | 67.84% | 0.00% | 32.16%
31 | B12 | 70.06% | 0.00% | 29.94%
32 | B13 | 69.12% | 0.00% | 30.88%
33 | B14 | 64.46% | 0.00% | 35.54%

These molecules were tested on CBCA, THCA, and CBDA production (assay: In vivo TS activity assay, Example 2 protein engineering of A. niger CBCAS, cultures fed olivetolic acid). Conditions: secondary screen, olivetolic acid (Table 8).
Assay type: cell-based, S. cerevisiae
Outline: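 CBCA, THCA and CBDA were measured by LC-MS in methanol extracts of yeast cultures expressing mutant A. niger CBCAS. Cultures were induced at 20 °C with galactose and fed 1 mM olivetolic acid daily for 4 days, then buffered with 100 mM sodium citrate pH 5.5. Secondary screen: quadruplicates fed 1 mM olivetolic or divaric acid.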

Row | Molecule | Mean CBCA | Mean CBDA | Mean THCA
34 | B1 | 27923.31 µg/L | 7360.14 µg/L | 1963.25 µg/L
35 | B2 | 27874.45 µg/L | 8385.38 µg/L | 1771.94 µg/L
36 | B3 | 22672.81 µg/L | 6720.79 µg/L | 1523.15 µg/L
37 | B4 | 31427.04 µg/L | 9022.22 µg/L | 2036.13 µg/L
38 | B5 | 21099.41 µg/L | 5260.35 µg/L | 1396.80 µg/L
39 | B6 | 18021.77 µg/L | 4783.24 µg/L | 1188.04 µg/L
40 | B7 | 27519.94 µg/L | 7436.20 µg/L | 1783.72 µg/L
41 | B8 | 24874.10 µg/L | 7028.82 µg/L | 1807.99 µg/L
42 | B9 | 30758.44 µg/L | 7663.56 µg/L | 2146.00 µg/L
43 | B10 | 23882.09 µg/L | 8030.74 µg/L | 1649.00 µg/L
44 | B11 | 19432.21 µg/L | 4507.57 µg/L | 1001.22 µg/L
45 | B12 | 28669.67 µg/L | 7340.65 µg/L | 1640.20 µg/L
46 | B13 | 26316.76 µg/L | 6998.62 µg/L | 1712.53 µg/L
47 | B14 | 26823.18 µg/L | 8556.40 µg/L | 1922.88 µg/L

Same assay, conditions: share of terminal cannabinoid product profile

Row | Molecule | % CBCA | % CBDA | % THCA
48 | B1 | 74.97% | 19.76% | 5.27%
49 | B2 | 73.29% | 22.05% | 4.66%
50 | B3 | 73.34% | 21.74% | 4.93%
51 | B4 | 73.97% | 21.24% | 4.79%
52 | B5 | 76.02% | 18.95% | 5.03%
53 | B6 | 75.11% | 19.94% | 4.95%
54 | B7 | 74.90% | 20.24% | 4.85%
55 | B8 | 73.79% | 20.85% | 5.36%
56 | B9 | 75.82% | 18.89% | 5.29%
57 | B10 | 71.16% | 23.93% | 4.91%
58 | B11 | 77.91% | 18.07% | 4.01%
59 | B12 | 76.15% | 19.50% | 4.36%
60 | B13 | 75.13% | 19.98% | 4.89%
61 | B14 | 71.91% | 22.94% | 5.15%
